Results reported in patent US20250019439A1 (Adimab, published 2025).

How the values were obtained:
Assay in all cases: BLI; tip anti-CD3 bsIgG, solution ADI-34145 IgG
ADI-26954 anti-CD3 bsIgG = target: T1, ADI-26954 anti-CD3 bsIgG
T1 construct: anti-HER2 IgG with one Fab arm replaced by the anti-CD3 scFv (printed 'Vx-VH', read as VL-VH); S354C and Y349C mutations; also called anti-CD3 bsIgG (ADI-26954 scFv); not shown: scFv linker; anti-HER2 Fab arm (heavy and light chain); hinge and Fc with S354C/Y349C
T1 sequence (VH, as listed by the source limits assumed, chain 1 of 2): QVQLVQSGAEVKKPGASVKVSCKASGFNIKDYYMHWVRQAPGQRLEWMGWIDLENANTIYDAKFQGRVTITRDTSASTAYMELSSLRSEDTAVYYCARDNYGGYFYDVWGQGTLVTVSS
T1 sequence (VL, as listed by the source limits assumed, chain 2 of 2): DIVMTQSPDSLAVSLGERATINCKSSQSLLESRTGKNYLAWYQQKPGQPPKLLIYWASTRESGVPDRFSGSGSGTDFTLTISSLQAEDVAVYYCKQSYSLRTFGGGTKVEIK
Procedure: (§1) ForteBio affinity measurements were performed generally as previously described (Estep et al., MAbs. 2013 5(2):270-8). Briefly, ForteBio affinity measurements were performed by loading antibody IgG or Fabs on-line onto AHC sensors. Sensors were equilibrated off-line in assay buffer for 30 minutes and then monitored on-line for 60 seconds for baseline establishment. For avid binding measurement, sensors with loaded antibodies were exposed to IgG or Fab solutions for 3 minutes, afterwards they were transferred to assay buffer for 3 minutes for off-rate measurement. Kinetics data were fit using a 1:1 binding model in the data analysis software provided by ForteBio to obtain equilibrium dissociation constant (KD=koff/kₒₙ) values. In each column, tip-immobilized antibodies are listed first and solution antibodies second.
(§2) Additional analysis was conducted using bispecific antibody formats incorporating anti-CD3 antibody variable domains. Bispecific antibodies were prepared using standard IgG formats (bsIgG) with replacement of Fab arms with anti-CD3 scFvs in Vx-VH orientation and with S354C and Y349C mutations for disulfide stabilization. Antibodies used for Fab arm replacement were anti-HER2 IgG antibodies, with one Fab arm from each replaced by a scFv corresponding to a different anti-CD3 antibody. […] In each column, tip-immobilized antibodies are listed first and solution antibodies second. Anti-CD3 antibodies associated with incorporated scFvs are listed by antibody number.

ADI-26913 anti-CD3 bsIgG = target: T2, ADI-26913 anti-CD3 bsIgG
T2 construct: anti-HER2 IgG with one Fab arm replaced by the anti-CD3 scFv (printed 'Vx-VH', read as VL-VH); S354C and Y349C mutations; also called anti-CD3 bsIgG (ADI-26913 scFv); not shown: scFv linker; anti-HER2 Fab arm (heavy and light chain); hinge and Fc with S354C/Y349C
T2 sequence (VH, as listed by the source limits assumed, chain 1 of 2): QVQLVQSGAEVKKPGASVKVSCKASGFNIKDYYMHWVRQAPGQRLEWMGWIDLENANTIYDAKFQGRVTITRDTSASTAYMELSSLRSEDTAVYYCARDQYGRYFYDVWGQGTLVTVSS
T2 sequence (VL, as listed by the source limits assumed, chain 2 of 2): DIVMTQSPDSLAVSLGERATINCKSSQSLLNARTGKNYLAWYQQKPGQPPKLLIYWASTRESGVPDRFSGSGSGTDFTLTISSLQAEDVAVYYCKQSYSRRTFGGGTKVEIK
Procedure: as §1, §2

ADI-26906 anti-CD3 bsIgG = target: T3, ADI-26906 anti-CD3 bsIgG
T3 construct: anti-HER2 IgG with one Fab arm replaced by the anti-CD3 scFv (printed 'Vx-VH', read as VL-VH); S354C and Y349C mutations; also called anti-CD3 bsIgG (ADI-26906 scFv); not shown: scFv linker; anti-HER2 Fab arm (heavy and light chain); hinge and Fc with S354C/Y349C
T3 sequence (VH, as listed by the source limits assumed, chain 1 of 2): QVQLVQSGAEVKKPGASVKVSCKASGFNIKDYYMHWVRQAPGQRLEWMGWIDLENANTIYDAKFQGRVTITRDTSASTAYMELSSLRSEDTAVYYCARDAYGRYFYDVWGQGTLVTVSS
Procedure: as §1, §2

ADI-26920 anti-CD3 bsIgG = target: T4, ADI-26920 anti-CD3 bsIgG
T4 construct: anti-HER2 IgG with one Fab arm replaced by the anti-CD3 scFv (printed 'Vx-VH', read as VL-VH); S354C and Y349C mutations; also called anti-CD3 bsIgG (ADI-26920 scFv); not shown: scFv linker; anti-HER2 Fab arm (heavy and light chain); hinge and Fc with S354C/Y349C
T4 sequence (VH, as listed by the source limits assumed, chain 1 of 2): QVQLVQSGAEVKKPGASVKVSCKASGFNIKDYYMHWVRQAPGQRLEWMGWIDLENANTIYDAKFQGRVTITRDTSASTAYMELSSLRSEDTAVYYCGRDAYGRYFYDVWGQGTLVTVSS
T4 sequence (VL, as listed by the source limits assumed, chain 2 of 2): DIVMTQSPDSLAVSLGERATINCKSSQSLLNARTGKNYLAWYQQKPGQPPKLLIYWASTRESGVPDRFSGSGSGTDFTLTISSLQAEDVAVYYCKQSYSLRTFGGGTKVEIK
Procedure: as §1, §2

CTL-19672 anti-CD3 bsIgG = target: T5, CTL-19672 anti-CD3 bsIgG (In the assay the two domains were one scFv (VL-VH orientation, linker not given). It replaced one Fab arm of an anti-HER2 IgG; S354C and Y349C mutations are stated for disulfide stabilization.)
T5 construct: anti-HER2 IgG with one Fab arm replaced by the anti-CD3 scFv (printed 'Vx-VH', read as VL-VH); S354C and Y349C mutations; not shown: scFv linker between VL and VH; anti-HER2 heavy and light chains of the other arm; hinge and Fc (with S354C / Y349C)
T5 sequence (VH, as listed by the source limits assumed, chain 1 of 2): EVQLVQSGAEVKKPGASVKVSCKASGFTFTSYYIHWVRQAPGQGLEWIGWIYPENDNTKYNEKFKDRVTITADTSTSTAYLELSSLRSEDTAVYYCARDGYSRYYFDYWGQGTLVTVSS
T5 sequence (VL, as listed by the source limits assumed, chain 2 of 2): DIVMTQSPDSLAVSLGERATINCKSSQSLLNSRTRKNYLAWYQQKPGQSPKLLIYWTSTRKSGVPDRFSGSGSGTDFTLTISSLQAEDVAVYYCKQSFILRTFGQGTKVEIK
Procedure: as §1, §2

ADI-26916 anti-CD3 bsIgG = target: T6, ADI-26916 anti-CD3 bsIgG
T6 construct: anti-HER2 IgG with one Fab arm replaced by the anti-CD3 scFv (printed 'Vx-VH', read as VL-VH); S354C and Y349C mutations; also called anti-CD3 bsIgG (ADI-26916 scFv); not shown: scFv linker; anti-HER2 Fab arm (heavy and light chain); hinge and Fc with S354C/Y349C; copies: 1 + 1
T6 sequence (VH, as listed by the source limits assumed, chain 1 of 2): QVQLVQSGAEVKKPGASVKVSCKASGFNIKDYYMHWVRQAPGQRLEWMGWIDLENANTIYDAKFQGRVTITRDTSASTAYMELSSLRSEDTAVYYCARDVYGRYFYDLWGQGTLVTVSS
Procedure: as §1, §2

CTL-19613 anti-CD3 bsIgG = target: T7, CTL-19613 anti-CD3 bsIgG (In the assay the two domains were one scFv (VL-VH orientation, linker not given). It replaced one Fab arm of an anti-HER2 IgG; S354C and Y349C mutations are stated for disulfide stabilization.)
T7 construct: anti-HER2 IgG with one Fab arm replaced by the anti-CD3 scFv (printed 'Vx-VH', read as VL-VH); S354C and Y349C mutations; also called anti-CD3 bsIgG (CTL-19613 scFv); not shown: scFv linker between VL and VH; anti-HER2 heavy and light chains of the other arm; hinge and Fc (with S354C / Y349C)
Procedure: as §1, §2

ADI-22523 anti-CD3 bsIgG = target: T8, ADI-22523 anti-CD3 bsIgG (In the assayed molecule VL and VH are joined as one scFv (printed 'Vx-VH' orientation) by an undisclosed linker and fused to an Fc, paired with an anti-HER2 half-IgG. They are given here as two …)
T8 construct: anti-HER2 IgG with one Fab arm replaced by the anti-CD3 scFv (printed 'Vx-VH', read as VL-VH); S354C and Y349C mutations; not shown: scFv linker between VL and VH; anti-HER2 heavy and light chains; hinge and Fc with S354C/Y349C
T8 sequence (VH, as listed by the source limits assumed, chain 1 of 2): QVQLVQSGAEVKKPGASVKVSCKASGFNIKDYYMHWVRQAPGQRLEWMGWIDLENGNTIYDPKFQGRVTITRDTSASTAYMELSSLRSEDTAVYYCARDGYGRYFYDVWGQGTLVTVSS
T8 sequence (VL, as listed by the source limits assumed, chain 2 of 2): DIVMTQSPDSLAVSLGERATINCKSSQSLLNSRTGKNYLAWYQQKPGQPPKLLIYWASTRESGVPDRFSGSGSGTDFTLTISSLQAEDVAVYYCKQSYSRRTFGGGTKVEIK
Procedure: as §1, §2

B1: ADI-34145 IgG (antibody, V domains shown)
VH: EVQLLESGGGLVQPGGSLRLSCAASGFTFSSYAMSWVRQAPGKGLEWVSTISGSGGSTYYADSVKGRFTISRDNSKNTLYLQMNSLRAEDTAVYYCARLGGRRGSGSSYYYYYGMDVWGQGTTVTVSS
VL: not shown
notes: anti-ID IgG
For B1, the Kd (ADI-26954 anti-CD3 bsIgG) was 27.8 nM, the Kd (ADI-26913 anti-CD3 bsIgG) was 14.7 nM and the Kd (ADI-26906 anti-CD3 bsIgG) was 13.4 nM. For the same binder, the Kd (ADI-26920 anti-CD3 bsIgG) was 6.72 nM, the binding result (CTL-19672 anti-CD3 bsIgG) was “no binding” and the Kd (ADI-26916 anti-CD3 bsIgG) was 57.1 nM. For the same binder, the binding result (CTL-19613 anti-CD3 bsIgG) was “no binding” and the Kd (ADI-22523 anti-CD3 bsIgG) was 9.13 nM.
